Data from publication PMC12102759 (2025).

B1: RNF115 peptide 67-82 (E3 ubiquitin-protein ligase RNF115), 16-mer library wild type / MDM2 SWIB (MDM2 SWIB/MDM2 domain, residues 17-125) (parent complex)
chain 1: TTTHFAELWGHLDHTM
chain 2: SQIPASEQETLVRPKPLLLKLLKSVGAQKDTYTMKEVLFYLGQYIMTKRLYDEKQQHIVYCSNDLLGDLFGVPSFSVKEHRKIYTMIYRNLVVVNQQESSDSGTSVSEN
B2: PIP5K1C peptide 642-657 (Phosphatidylinositol 4-phosphate 5-kinase type-1 gamma), 16-mer library wild type / TLN1 PTB (TLN1 Phosphotyrosine-binding (PTB) domain, residues 309-401) (parent complex)
chain 1: TDERSWVYSPLHYSAQ
chain 2: GVSFFLVKEKMKGKNKLVPRLLGITKECVMRVDEKTKEVIQEWNLTNIKRWAASPKSFTLDFGDYQDGYYSVQTTEGEQIAQLIAGYIDIILK

Variants of: B1
Experiment: proteomic peptide phage display deep mutational scan (ProP-PD DMS): M13 P8 16-mer library selected against immobilised GST-tagged bait for four days (rounds), NGS of the eluted pools per day and pseudo-replica; bait immobilised on MaxiSorp plates (10 µg), library pre-cleared on GST, 2 h binding at 4 °C, five washes; one round per day, days 1-4; value from days 2 and 3
chain 1 T3P was tested, and the screen value was 0.000694 average fractional NGS count over selection days 2 and 3 (reads of this peptide / all reads for the bait, averaged over ….
In the case of chain 1 T3F, the screen value is reported as 0.000452 average fractional NGS count over selection days 2 and 3 (reads of this peptide / all reads for the bait, averaged over ….
With chain 1 T3Y the screen value was 0.000753 average fractional NGS count over selection days 2 and 3 (reads of this peptide / all reads for the bait, averaged over ….
For chain 1 T3G, the screen value was 0.000204 average fractional NGS count over selection days 2 and 3 (reads of this peptide / all reads for the bait, averaged over ….
With chain 1 T3M the screen value was 0.000962 average fractional NGS count over selection days 2 and 3 (reads of this peptide / all reads for the bait, averaged over ….
With chain 1 T3E the screen value was 0.00168 average fractional NGS count over selection days 2 and 3 (reads of this peptide / all reads for the bait, averaged over ….
With chain 1 T3W the screen value was 0.00105 average fractional NGS count over selection days 2 and 3 (reads of this peptide / all reads for the bait, averaged over ….
chain 1 T15S was tested, and the screen value was 0.000189 average fractional NGS count over selection days 2 and 3 (reads of this peptide / all reads for the bait, averaged over ….
In the case of chain 1 T15V, the screen value is reported as 0.00407 average fractional NGS count over selection days 2 and 3 (reads of this peptide / all reads for the bait, averaged over ….
chain 1 T15A was tested, and the screen value was 0.000886 average fractional NGS count over selection days 2 and 3 (reads of this peptide / all reads for the bait, averaged over ….
With chain 1 T15Q the screen value was 0.000103 average fractional NGS count over selection days 2 and 3 (reads of this peptide / all reads for the bait, averaged over ….
In the case of chain 1 T15F, the screen value is reported as 0.00191 average fractional NGS count over selection days 2 and 3 (reads of this peptide / all reads for the bait, averaged over ….
With chain 1 T15D the screen value was 0.000245 average fractional NGS count over selection days 2 and 3 (reads of this peptide / all reads for the bait, averaged over ….

Variants of: B2
Experiment: as above
In the case of chain 1 W6R, the screen value is reported as 0.000143 average fractional NGS count over selection days 2 and 3 (reads of this peptide / all reads for the bait, averaged over ….
chain 1 T1M was tested, and the screen value was 0.000328 average fractional NGS count over selection days 2 and 3 (reads of this peptide / all reads for the bait, averaged over ….
With chain 1 T1S the screen value was 0.00255 average fractional NGS count over selection days 2 and 3 (reads of this peptide / all reads for the bait, averaged over ….
In the case of chain 1 T1Y, the screen value is reported as 0.000499 average fractional NGS count over selection days 2 and 3 (reads of this peptide / all reads for the bait, averaged over ….
In the case of chain 1 T1A, the screen value is reported as 0.00341 average fractional NGS count over selection days 2 and 3 (reads of this peptide / all reads for the bait, averaged over ….
In the case of chain 1 T1Q, the screen value is reported as 0.00112 average fractional NGS count over selection days 2 and 3 (reads of this peptide / all reads for the bait, averaged over ….
chain 1 D2Q was tested, and the screen value was 0.00198 average fractional NGS count over selection days 2 and 3 (reads of this peptide / all reads for the bait, averaged over ….
In the case of chain 1 D2P, the screen value is reported as 0.00102 average fractional NGS count over selection days 2 and 3 (reads of this peptide / all reads for the bait, averaged over ….
chain 1 D2T was tested, and the screen value was 0.00067 average fractional NGS count over selection days 2 and 3 (reads of this peptide / all reads for the bait, averaged over ….
chain 1 E3R was tested, and the screen value was 0.000973 average fractional NGS count over selection days 2 and 3 (reads of this peptide / all reads for the bait, averaged over ….
For chain 1 E3Q, the screen value was 0.000394 average fractional NGS count over selection days 2 and 3 (reads of this peptide / all reads for the bait, averaged over ….
For chain 1 E3L, the screen value was 0.00278 average fractional NGS count over selection days 2 and 3 (reads of this peptide / all reads for the bait, averaged over ….
chain 1 S9M was tested, and the screen value was 0.000276 average fractional NGS count over selection days 2 and 3 (reads of this peptide / all reads for the bait, averaged over ….
chain 1 S9H was tested, and the screen value was 0.000148 average fractional NGS count over selection days 2 and 3 (reads of this peptide / all reads for the bait, averaged over ….
chain 1 S9T was tested, and the screen value was 0.000558 average fractional NGS count over selection days 2 and 3 (reads of this peptide / all reads for the bait, averaged over ….
chain 1 S9D was tested, and the screen value was 7.45e-05 average fractional NGS count over selection days 2 and 3 (reads of this peptide / all reads for the bait, averaged over ….
In the case of chain 1 H12I, the screen value is reported as 0.000636 average fractional NGS count over selection days 2 and 3 (reads of this peptide / all reads for the bait, averaged over ….
In the case of chain 1 H12R, the screen value is reported as 0.000172 average fractional NGS count over selection days 2 and 3 (reads of this peptide / all reads for the bait, averaged over ….
For chain 1 H12L, the screen value was 0.00133 average fractional NGS count over selection days 2 and 3 (reads of this peptide / all reads for the bait, averaged over ….
For chain 1 H12S, the screen value was 0.000155 average fractional NGS count over selection days 2 and 3 (reads of this peptide / all reads for the bait, averaged over ….
chain 1 H12Y was tested, and the screen value was 0.000256 average fractional NGS count over selection days 2 and 3 (reads of this peptide / all reads for the bait, averaged over ….
With chain 1 S5Y the screen value was 0.000589 average fractional NGS count over selection days 2 and 3 (reads of this peptide / all reads for the bait, averaged over ….
In the case of chain 1 S5V, the screen value is reported as 0.0006 average fractional NGS count over selection days 2 and 3 (reads of this peptide / all reads for the bait, averaged over ….
With chain 1 P10G the screen value was 0.00227 average fractional NGS count over selection days 2 and 3 (reads of this peptide / all reads for the bait, averaged over ….
chain 1 P10N was tested, and the screen value was 0.00396 average fractional NGS count over selection days 2 and 3 (reads of this peptide / all reads for the bait, averaged over ….
chain 1 P10I was tested, and the screen value was 0.00026 average fractional NGS count over selection days 2 and 3 (reads of this peptide / all reads for the bait, averaged over ….
In the case of chain 1 P10V, the screen value is reported as 0.000485 average fractional NGS count over selection days 2 and 3 (reads of this peptide / all reads for the bait, averaged over ….
With chain 1 P10S the screen value was 0.00055 average fractional NGS count over selection days 2 and 3 (reads of this peptide / all reads for the bait, averaged over ….
In the case of chain 1 L11M, the screen value is reported as 0.000374 average fractional NGS count over selection days 2 and 3 (reads of this peptide / all reads for the bait, averaged over ….
For chain 1 L11G, the screen value was 0.000282 average fractional NGS count over selection days 2 and 3 (reads of this peptide / all reads for the bait, averaged over ….
With chain 1 S14L the screen value was 0.00127 average fractional NGS count over selection days 2 and 3 (reads of this peptide / all reads for the bait, averaged over ….
For chain 1 S14I, the screen value was 0.000211 average fractional NGS count over selection days 2 and 3 (reads of this peptide / all reads for the bait, averaged over ….
In the case of chain 1 S14D, the screen value is reported as 0.00662 average fractional NGS count over selection days 2 and 3 (reads of this peptide / all reads for the bait, averaged over ….
In the case of chain 1 S14P, the screen value is reported as 0.000401 average fractional NGS count over selection days 2 and 3 (reads of this peptide / all reads for the bait, averaged over ….
With chain 1 S14K the screen value was 0.000852 average fractional NGS count over selection days 2 and 3 (reads of this peptide / all reads for the bait, averaged over ….
With chain 1 S14A the screen value was 0.00151 average fractional NGS count over selection days 2 and 3 (reads of this peptide / all reads for the bait, averaged over ….
In the case of chain 1 R4V, the screen value is reported as 0.00216 average fractional NGS count over selection days 2 and 3 (reads of this peptide / all reads for the bait, averaged over ….
chain 1 R4E was tested, and the screen value was 0.00181 average fractional NGS count over selection days 2 and 3 (reads of this peptide / all reads for the bait, averaged over ….
chain 1 R4K was tested, and the screen value was 0.000222 average fractional NGS count over selection days 2 and 3 (reads of this peptide / all reads for the bait, averaged over ….
chain 1 R4F was tested, and the screen value was 0.00144 average fractional NGS count over selection days 2 and 3 (reads of this peptide / all reads for the bait, averaged over ….
In the case of chain 1 R4Q, the screen value is reported as 0.00324 average fractional NGS count over selection days 2 and 3 (reads of this peptide / all reads for the bait, averaged over ….
In the case of chain 1 R4T, the screen value is reported as 0.000696 average fractional NGS count over selection days 2 and 3 (reads of this peptide / all reads for the bait, averaged over ….
In the case of chain 1 R4H, the screen value is reported as 0.00121 average fractional NGS count over selection days 2 and 3 (reads of this peptide / all reads for the bait, averaged over ….
With chain 1 R4L the screen value was 0.00628 average fractional NGS count over selection days 2 and 3 (reads of this peptide / all reads for the bait, averaged over ….
For chain 1 V7R, the screen value was 0.00391 average fractional NGS count over selection days 2 and 3 (reads of this peptide / all reads for the bait, averaged over ….
With chain 1 V7N the screen value was 0.0129 average fractional NGS count over selection days 2 and 3 (reads of this peptide / all reads for the bait, averaged over ….
In the case of chain 1 V7Q, the screen value is reported as 0.00122 average fractional NGS count over selection days 2 and 3 (reads of this peptide / all reads for the bait, averaged over ….
For chain 1 V7S, the screen value was 0.00114 average fractional NGS count over selection days 2 and 3 (reads of this peptide / all reads for the bait, averaged over ….
With chain 1 A15H the screen value was 0.000752 average fractional NGS count over selection days 2 and 3 (reads of this peptide / all reads for the bait, averaged over ….
chain 1 A15T was tested, and the screen value was 0.00116 average fractional NGS count over selection days 2 and 3 (reads of this peptide / all reads for the bait, averaged over ….
chain 1 A15R was tested, and the screen value was 0.000696 average fractional NGS count over selection days 2 and 3 (reads of this peptide / all reads for the bait, averaged over ….
For chain 1 A15N, the screen value was 0.000427 average fractional NGS count over selection days 2 and 3 (reads of this peptide / all reads for the bait, averaged over ….
For chain 1 A15E, the screen value was 0.00381 average fractional NGS count over selection days 2 and 3 (reads of this peptide / all reads for the bait, averaged over ….
chain 1 A15W was tested, and the screen value was 0.00297 average fractional NGS count over selection days 2 and 3 (reads of this peptide / all reads for the bait, averaged over ….
In the case of chain 1 Y13I, the screen value is reported as 0.00816 average fractional NGS count over selection days 2 and 3 (reads of this peptide / all reads for the bait, averaged over ….
For chain 1 Y13W, the screen value was 0.000603 average fractional NGS count over selection days 2 and 3 (reads of this peptide / all reads for the bait, averaged over ….
For chain 1 Y13P, the screen value was 0.00124 average fractional NGS count over selection days 2 and 3 (reads of this peptide / all reads for the bait, averaged over ….
For chain 1 Y13H, the screen value was 0.000476 average fractional NGS count over selection days 2 and 3 (reads of this peptide / all reads for the bait, averaged over ….
In the case of chain 1 Y13T, the screen value is reported as 0.000772 average fractional NGS count over selection days 2 and 3 (reads of this peptide / all reads for the bait, averaged over ….
For chain 1 Y8D, the screen value was 0.00213 average fractional NGS count over selection days 2 and 3 (reads of this peptide / all reads for the bait, averaged over ….
In the case of chain 1 Y8P, the screen value is reported as 0.000696 average fractional NGS count over selection days 2 and 3 (reads of this peptide / all reads for the bait, averaged over ….
In the case of chain 1 Y8R, the screen value is reported as 0.0156 average fractional NGS count over selection days 2 and 3 (reads of this peptide / all reads for the bait, averaged over ….
